B1: DNA-binding protein HU 1, P08821 (parent)
chain: MNKTELINAVAEASELSKKDATKAVDSVFDTILDALKNGDKIQLIGFGNFEVRERSARKGRNPQTGEEIEIPASKVPAFKPGKALKDAVAGK
B2: DNA-binding protein HU, P0A3H0 (parent)
chain: MNKTELINAVAETSGLSKKDATKAVDAVFDSITEALRKGDKVQLIGFGNFEVRERAARKGRNPQTGEEMEIPASKVPAFKPGKALKDAVK

Data set [1] covers variants of B1. The following applies: Bacillus subtilis (strain 168), pH 7, Thermal, CD, Sodium phosphate 5 mM, NaCl 0.2 M, reversible: yes, whole UniProt chain shown; for ddG of mutation (higher = less stable): 48.6 °C.
Variants of B2 are the subject of data set [2]. To be noted: Geobacillus stearothermophilus, pH 7, Thermal, structure 1HUE, whole UniProt chain shown; for ddG of mutation (higher = less stable): 63.9 °C.
[3] abbreviates: CD, Sodium phosphate 5 mM, NaCl 0.2 M, reversible: yes.

One may read the Tm as the temperature at the midpoint of the melting transition. Regarding E15G S27A D34E N38K I42V, in data set [1], the “ddG of mutation (higher = less stable)” value was -2.98 kcal/mol; the Tm came to 71.3 °C; the “change of melting temperature, mutant - wild type (higher = more stable)” value (shortened to “change of melting temperature, mutant”) was 22.7 °C.

With D34E N38K, in data set [1], the “ddG of mutation (higher = less stable)” value is -0.45 kcal/mol; the Tm worked out at 52.1 °C; the “change of melting temperature, mutant” value amounted to 3.5 °C.

As to S27A, in data set [1], the “ddG of mutation (higher = less stable)” value is -0.73 kcal/mol; the Tm came out at 54.2 °C; the “change of melting temperature, mutant” value was found to be 5.6 °C.

Take E15G: in data set [1], the “ddG of mutation (higher = less stable)” value is -1.55 kcal/mol; the Tm is 60.4 °C; the “change of melting temperature, mutant” value is 11.8 °C.

For the variant I42V, in data set [1], the Tm was 52.6 °C and the “change of melting temperature, mutant” value is 4 °C.

S31T: in data set [2] (setting [3]), the “ddG of mutation (higher = less stable)” value was -0.41 kcal/mol; the midpoint of thermal melting (Tm) is 65.8 °C; the “change of melting temperature, mutant” value came out at 1.9 °C; the “unfolding enthalpy (van 't Hoff)” value turned out to be 81.1 kcal/mol.

Regarding M69I, in data set [2] (setting [3]), the “ddG of mutation (higher = less stable)” value stood at 0 kcal/mol; the Tm worked out at 63.9 °C; the “change of melting temperature, mutant” value was determined as 0 °C; the “unfolding enthalpy (van 't Hoff)” value was found to be 79.2 kcal/mol.

Take G15E: in data set [2] (setting [3]), the midpoint of thermal melting (Tm) was found to be 54 °C and the “change of melting temperature, mutant” value was -9.9 °C. Also, in data set [2] (DSC, phosphate 0.05 M), the Tm came to 55.7 °C and the “change of melting temperature, mutant” value is -10.1 °C.

With A27S, in data set [2] (setting [3]), the melting temperature (Tm) stood at 58.4 °C; the “change of melting temperature, mutant” value is -5.5 °C; the “unfolding enthalpy (van 't Hoff)” value is 76.5 kcal/mol.

In the case of A56S, in data set [2] (setting [3]), the “ddG of mutation (higher = less stable)” value was 0.13 kcal/mol; the Tm was 63.3 °C; the “change of melting temperature, mutant” value is -0.6 °C; the “unfolding enthalpy (van 't Hoff)” value turned out to be 83 kcal/mol.

With K38N, the midpoint of thermal melting (Tm) in data set [2] (setting [3]) was 61.5 °C; in data set [2] (DSC, phosphate 0.05 M), 61.7 °C. Moreover, the “change of melting temperature, mutant” value is -2.4 °C in data set [2] (setting [3]) and -4.1 °C in data set [2] (DSC, phosphate 0.05 M).

Turning to V42I, in data set [2] (setting [3]), the “ddG of mutation (higher = less stable)” value is 0.82 kcal/mol; the Tm was 60.1 °C; the “change of melting temperature, mutant” value was -3.8 °C; the “unfolding enthalpy (van 't Hoff)” value is 54.7 kcal/mol. Also, in data set [2] (DSC, phosphate 0.05 M), the midpoint of thermal melting (Tm) was determined as 59.6 °C and the “change of melting temperature, mutant” value was -6.2 °C.

As for E34D, the Tm came to 61.6 °C in data set [2] (setting [3]) and 63.5 °C in data set [2] (DSC, phosphate 0.05 M). In addition, the “change of melting temperature, mutant” value was -2.3 °C in data set [2] (setting [3]) and -2.3 °C in data set [2] (DSC, phosphate 0.05 M).

Source of the values: FireProtDB (doi:10.1074/jbc.273.32.19982).
